Assay results: the supplement of paper PMC10567573

B1: PLD5 (parent)
chain: WIVDKQHVYIGSAGLDWQSLGQMK
B2: BTBD1 (parent)
chain: TSAEIELPDVEPAAFLALLRFLYS

Variants of: B1
Assay: protein stability index of a GFP-peptide fusion (GPS, HEK-293T) (PSI 1-6); higher = more stable
Details: c terminus: a fixed tail appended
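Further: lentivirally expressed fusions sorted by FACS into six bins by GFP to DsRed ratio, PSI derived from sequencing read proportions per bin multiplied by bin number.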

Protein stability index, by site and new letter:
G21: W 1.68, Y 1.72, V 2.13
Q22: W 2.11, K 2.32, T 2.97, A 2.11, R 1.37, V 1.79, F 2.59, E 1.59, I 1.53, S 1.97, C 2.35, H 2.74, L 3.9, G 1.8, D 1.97, N 1.67, P 2.01, Y 2.35
M23: K 1.69, E 2.11, H 1.32, S 1.74, D 2.15, G 1.9, A 1.55, I 2.15, P 1.85, L 2.12, Y 1.84, N 1.9, W 2.19, F 1.69, Q 2.09, T 2.06, C 2.21, R 1.97, V 1.29
K24: A 2.37, I 1.79, H 2.79, V 2.15, T 2.23, E 2.51, C 3.61, P 2.17, F 2.05, D 2.02, N 2.36, L 2.68, W 2.97, R 1.51, S 3.37, M 2.58

Variants of: B2
Assay: as above
Details: c terminus: a fixed tail appended

Protein stability index of substitutions, site by site:
T1: S 1.65, D 2.4, Q 1.97, C 2.79, F 1.79, G 2.56, H 2.15, V 1.88, L 2.02, M 2.46, A 2.22, N 2.17, I 1.65, W 1.96
F15: A 1.69, D 2.73, P 2.6, L 1.31, K 1.71, H 1.67, C 2.3, M 1.43, I 1.95, S 2.04, Y 2.56, E 2.31, G 2.23, T 1.78
A3: E 1.91, W 1.41, L 1.53, V 2.27, D 2.12, K 2.17, N 1.96, T 1.99, R 2.26, P 2.12, H 1.8, S 1.67
P12: M 1.46, W 1.8, V 2.46, E 2.08, L 1.67, D 1.47, I 2.24, Q 1.19, T 1.41, N 1.95, G 1.85
I5: R 2.55, C 1.77, A 2.06, Q 2.4, D 2.44, F 1.78, K 2.94, T 2.18, P 1.68, E 2.03, W 2, G 2.55
L7: W 2.02, E 1.63, P 2.3, H 2.22, F 1.96, Q 1.96, S 1.79, V 1.98, K 2.31, T 1.75, I 1.93
Y23: T 1.94, V 2.37, M 2.27, S 1.36, F 1.75, L 2.57, A 1.99, P 1.75, G 1.58
A14: P 2.05, K 1.63, L 1.4, S 2.41, D 2, V 2.28, G 2.04, I 1.72, R 1.87, H 2.04, Y 1.8, E 1.66, N 1.92, F 1.91, M 1.47
D9: L 1.63, A 1.84, T 2.55, K 1.98, C 1.62, N 2, H 2, G 1.92, F 2.23, E 2.19, I 1.49, Y 1.33
S24: Y 1.94
